According to patent EP3007726B1:

Target: tau of P301L tau transgenic mice (4R2N human tau mutated at P301L) (human) (UniProt P10636)
Experiment: free-tau ELISA on CSF of P301L mice treated with IPN002, against control IgG (Figure 33)

UniProt P10636, sequence (P10636 other isoform, or with tags, fused parts or gaps P301L P301L P301L P301L limits assumed): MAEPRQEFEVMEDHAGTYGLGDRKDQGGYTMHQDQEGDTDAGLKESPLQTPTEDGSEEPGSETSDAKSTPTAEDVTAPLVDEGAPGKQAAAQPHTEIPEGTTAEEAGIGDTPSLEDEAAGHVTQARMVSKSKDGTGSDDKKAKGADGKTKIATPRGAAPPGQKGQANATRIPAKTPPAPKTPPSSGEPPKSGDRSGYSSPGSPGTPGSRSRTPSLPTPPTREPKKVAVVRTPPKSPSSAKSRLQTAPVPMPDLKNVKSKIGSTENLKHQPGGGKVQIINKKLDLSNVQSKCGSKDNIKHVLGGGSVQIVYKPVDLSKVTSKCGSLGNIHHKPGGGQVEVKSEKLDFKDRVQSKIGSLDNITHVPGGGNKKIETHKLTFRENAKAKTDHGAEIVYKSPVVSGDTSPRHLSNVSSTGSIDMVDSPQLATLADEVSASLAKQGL

B1: IPN002 (antibody, V domains shown)
VH: EVHLVESGGALVKPGGSLKLSCAASGFSFSKYGMSWVRQTPDKRLEWVATISSSGSRTYYPDSVKGQFTISRDNAKNTLYLQMSSLKSEDTAMYYCSISWDGAMDYWGQGTSVTVSS
VL: DVLMTQTPLSLPVSLGDQASISCKSSQSIVHSNGNTYLEWYLQKPGQSPKLLVYKVSNRFSGVPDRFSGSGSGTDFTLKISRVEAEDLGTYYCFQGSLVPWAFGGGTKLEIK
With B1 the reduction in levels of the Free Tau (of IPN002) signal in CSF was 96%.
